Source: paper PMC3789969, “The Allosteric Role of the AAA^+ Domain of ChlD Protein from the Magnesium Chelatase of Synechocystis Species PCC 6803*” (The Journal of Biological Chemistry, 2013)

How the values were obtained:
Conditions in all cases: both partners purified
[1] = target: T1, His6-ChlD (K49A), Walker A mutant (Synechocystis sp. PCC 6803, UniProt P72772 1-676, K49A); assay: pull-down; co-purification on Ni(II) chelating Sepharose through His6-ChlD; 2 μM ChlD and 2 μM ChlI, with nucleotide (methods: 5 mM ADP; legend: ATP), 15 mM MgCl2, 50 mM Tricine, 0.3 M glycerol, pH 7.9, room temperature; SDS-PAGE of the resin
T1 construct: Magnesium chelatase subunit ChlD, Synechocystis sp; PCC 6803, with K49A in the Walker A motif; Same construct as m2 with one point mutation; also called K49A mutant; source: Rosetta2(DE3) pLysS, site-directed mutant (QuikChange) of pET9a-His6ChlD, purified
T1 sequence (P72772 whole entry K49A): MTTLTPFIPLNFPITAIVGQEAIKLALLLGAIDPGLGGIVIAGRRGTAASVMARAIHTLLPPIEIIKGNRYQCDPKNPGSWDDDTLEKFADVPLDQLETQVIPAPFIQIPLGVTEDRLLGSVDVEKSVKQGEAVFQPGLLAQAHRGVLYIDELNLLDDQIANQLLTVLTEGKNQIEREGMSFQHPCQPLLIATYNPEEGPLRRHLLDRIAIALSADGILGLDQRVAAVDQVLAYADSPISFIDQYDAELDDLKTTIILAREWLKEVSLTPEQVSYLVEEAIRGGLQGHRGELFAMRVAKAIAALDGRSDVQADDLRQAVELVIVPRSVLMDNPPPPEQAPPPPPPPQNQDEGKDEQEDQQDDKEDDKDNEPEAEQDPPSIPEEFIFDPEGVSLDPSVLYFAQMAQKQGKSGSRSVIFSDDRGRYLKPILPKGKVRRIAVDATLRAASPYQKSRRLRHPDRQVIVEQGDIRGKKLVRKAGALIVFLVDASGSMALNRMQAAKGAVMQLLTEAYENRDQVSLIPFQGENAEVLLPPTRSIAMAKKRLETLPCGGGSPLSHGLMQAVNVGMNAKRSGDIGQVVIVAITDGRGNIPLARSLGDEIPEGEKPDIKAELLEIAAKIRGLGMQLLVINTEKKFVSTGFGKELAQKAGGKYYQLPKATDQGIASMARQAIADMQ

[2] = target: T2, His6-ChlD, wild type, of the magnesium chelatase of Synechocystis sp. PCC 6803 (Synechocystis sp. PCC 6803, UniProt P72772 1-676); assay: chelatase assembly titration (steady-state enzyme activity); apparent; ChlI titrated against 0.1 μM His6-ChlD with 0.4 μM ChlH, steady-state rate of MgDIX formation fitted to Equation 3; 50 mM MOPS/KOH, 0.3 M glycerol, 1 mM DTT, 10 mM free Mg2+, I = 0.1 with KCl, 8 μM DIX, pH 7.7, 34 °C
T2 construct: Magnesium chelatase subunit ChlD, Synechocystis sp; PCC 6803; also called wild type ChlD; wild type His6-ChlD; source: Rosetta2(DE3) pLysS, vector pET9a-His6ChlD, purified
T2 sequence (P72772 whole entry): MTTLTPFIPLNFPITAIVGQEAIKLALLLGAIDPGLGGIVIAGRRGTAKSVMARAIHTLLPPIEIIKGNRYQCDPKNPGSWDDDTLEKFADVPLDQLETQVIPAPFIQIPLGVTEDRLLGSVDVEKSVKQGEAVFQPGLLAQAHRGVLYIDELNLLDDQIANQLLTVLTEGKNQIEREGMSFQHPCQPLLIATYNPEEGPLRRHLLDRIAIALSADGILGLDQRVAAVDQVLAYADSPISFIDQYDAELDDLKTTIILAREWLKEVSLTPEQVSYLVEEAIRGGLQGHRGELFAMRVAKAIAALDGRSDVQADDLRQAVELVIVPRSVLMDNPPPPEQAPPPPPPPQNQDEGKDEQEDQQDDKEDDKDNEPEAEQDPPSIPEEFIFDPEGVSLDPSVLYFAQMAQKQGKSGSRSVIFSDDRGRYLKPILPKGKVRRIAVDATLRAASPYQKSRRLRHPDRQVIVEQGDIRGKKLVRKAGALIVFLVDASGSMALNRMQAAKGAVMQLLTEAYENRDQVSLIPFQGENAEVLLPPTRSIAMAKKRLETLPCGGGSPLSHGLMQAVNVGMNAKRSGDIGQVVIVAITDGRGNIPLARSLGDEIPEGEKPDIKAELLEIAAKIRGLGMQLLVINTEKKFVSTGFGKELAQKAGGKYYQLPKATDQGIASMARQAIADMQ

[3] = target: T3, His6-ChlD (E152Q), Walker B mutant (Synechocystis sp. PCC 6803, UniProt P72772 1-676, E152Q); assay: as above
T3 construct: Magnesium chelatase subunit ChlD, Synechocystis sp; PCC 6803, with E152Q in the Walker B motif; Same construct as m2 with one point mutation; also called E152Q mutant; source: Rosetta2(DE3) pLysS, site-directed mutant (QuikChange) of pET9a-His6ChlD, purified
T3 sequence (P72772 whole entry E152Q): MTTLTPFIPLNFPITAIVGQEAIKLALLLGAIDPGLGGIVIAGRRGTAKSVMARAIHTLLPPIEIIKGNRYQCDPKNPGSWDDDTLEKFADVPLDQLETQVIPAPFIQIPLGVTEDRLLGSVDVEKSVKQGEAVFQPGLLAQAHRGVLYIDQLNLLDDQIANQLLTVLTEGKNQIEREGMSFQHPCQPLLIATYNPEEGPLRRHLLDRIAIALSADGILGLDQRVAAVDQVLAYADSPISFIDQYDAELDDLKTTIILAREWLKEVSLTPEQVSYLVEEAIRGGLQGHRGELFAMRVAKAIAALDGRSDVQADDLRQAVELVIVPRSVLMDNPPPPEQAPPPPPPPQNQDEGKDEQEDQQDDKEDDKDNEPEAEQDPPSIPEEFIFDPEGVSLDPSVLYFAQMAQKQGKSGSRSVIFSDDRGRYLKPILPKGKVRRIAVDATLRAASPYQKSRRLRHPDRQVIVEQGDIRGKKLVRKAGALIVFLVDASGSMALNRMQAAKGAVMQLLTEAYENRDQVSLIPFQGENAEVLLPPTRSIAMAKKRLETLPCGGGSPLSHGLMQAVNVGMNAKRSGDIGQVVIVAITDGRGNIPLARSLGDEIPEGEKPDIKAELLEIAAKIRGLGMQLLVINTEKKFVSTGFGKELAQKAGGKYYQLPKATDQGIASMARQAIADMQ

[4] = target: T4, His6-ChlD (R208A), arginine finger mutant (Synechocystis sp. PCC 6803, UniProt P72772 1-676, R208A); assay: as above
T4 construct: Magnesium chelatase subunit ChlD, Synechocystis sp; PCC 6803, with R208A removing the arginine finger; Same construct as m2 with one point mutation; also called R208A mutant; source: Rosetta2(DE3) pLysS, site-directed mutant (QuikChange) of pET9a-His6ChlD, purified
T4 sequence (P72772 whole entry R208A): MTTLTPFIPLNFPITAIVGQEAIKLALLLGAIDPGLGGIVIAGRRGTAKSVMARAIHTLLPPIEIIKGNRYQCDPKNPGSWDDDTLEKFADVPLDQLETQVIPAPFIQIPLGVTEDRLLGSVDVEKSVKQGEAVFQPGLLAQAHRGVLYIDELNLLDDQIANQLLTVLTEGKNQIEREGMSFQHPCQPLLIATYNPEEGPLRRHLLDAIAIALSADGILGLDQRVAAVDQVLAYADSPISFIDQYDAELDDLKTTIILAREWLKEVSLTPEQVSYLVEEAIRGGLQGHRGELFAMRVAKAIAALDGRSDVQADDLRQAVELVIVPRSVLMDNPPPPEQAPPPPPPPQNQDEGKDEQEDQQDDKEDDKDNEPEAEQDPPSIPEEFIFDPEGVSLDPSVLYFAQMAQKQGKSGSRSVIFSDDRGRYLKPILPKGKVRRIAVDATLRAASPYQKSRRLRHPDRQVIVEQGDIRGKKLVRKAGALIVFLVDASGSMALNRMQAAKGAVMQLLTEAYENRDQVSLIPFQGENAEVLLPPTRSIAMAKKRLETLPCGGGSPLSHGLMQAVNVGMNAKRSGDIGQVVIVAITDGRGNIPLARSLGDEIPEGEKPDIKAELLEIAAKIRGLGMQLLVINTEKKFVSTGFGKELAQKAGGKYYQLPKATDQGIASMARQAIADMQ

[5] = target: T5, His6-ChlD (R289A), Sensor II mutant (Synechocystis sp. PCC 6803, UniProt P72772 1-676, R289A); assay: as above
T5 construct: Magnesium chelatase subunit ChlD, Synechocystis sp; PCC 6803, with R289A removing the Sensor II arginine; Same construct as m2 with one point mutation; also called R289A mutant; Sensor II arginine mutant; source: Rosetta2(DE3) pLysS, site-directed mutant (QuikChange) of pET9a-His6ChlD, purified
T5 sequence (P72772 whole entry R289A): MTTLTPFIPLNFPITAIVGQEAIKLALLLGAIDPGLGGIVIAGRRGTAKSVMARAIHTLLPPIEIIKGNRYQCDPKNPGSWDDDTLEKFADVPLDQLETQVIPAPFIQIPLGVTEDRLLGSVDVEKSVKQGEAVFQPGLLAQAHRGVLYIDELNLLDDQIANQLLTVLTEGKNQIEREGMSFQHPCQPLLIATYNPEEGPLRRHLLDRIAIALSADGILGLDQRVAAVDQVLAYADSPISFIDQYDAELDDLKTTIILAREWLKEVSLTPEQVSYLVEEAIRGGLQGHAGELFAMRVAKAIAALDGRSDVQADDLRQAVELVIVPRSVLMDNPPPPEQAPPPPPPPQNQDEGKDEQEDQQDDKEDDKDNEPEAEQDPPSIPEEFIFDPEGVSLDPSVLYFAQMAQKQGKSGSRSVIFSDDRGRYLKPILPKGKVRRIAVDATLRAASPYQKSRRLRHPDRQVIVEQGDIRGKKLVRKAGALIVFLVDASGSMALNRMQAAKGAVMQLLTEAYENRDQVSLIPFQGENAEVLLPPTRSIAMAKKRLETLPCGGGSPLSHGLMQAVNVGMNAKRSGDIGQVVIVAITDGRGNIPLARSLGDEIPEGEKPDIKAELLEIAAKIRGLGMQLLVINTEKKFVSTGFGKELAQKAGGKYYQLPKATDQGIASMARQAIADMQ

binding result [1]: binds | Kd [2]: 0.17 nM | nd (concentration of binding sites for ChlI) [2]: 0.23 µM | Kd [3]: 0.35 nM | nd (concentration of binding sites for ChlI) [3]: 0.24 µM | Kd [4]: 14 nM | nd (concentration of binding sites for ChlI) [4]: 0.2 µM | Kd [5]: 52 nM | nd (concentration of binding sites for ChlI) [5]: 0.19 µM
B1: ChlI protein of the magnesium chelatase of Synechocystis sp. PCC 6803 (natural protein, UniProt P51634 1-357, looked up)
chain: MTATLAAPSKTRRVVFPFTAIVGQDEMKLALLLNVIDPKIGGVMIMGDRGTGKSTTIRALADLLPEIEVVANDPFNSSPSDPEMMSEEVRIRVDSQEPLSIVKKKVTMVDLPLGATEDRVCGTIDIEKALSEGVKAFEPGLLAKANRGILYVDEVNLLDDHLVDVLLDSAAGGWNTVEREGISIRHPARFVLVGSGNPEEGELRPQLLDRFGMHAEIRTVREPELRVKIVEQRTEFDQNPHPFCDQYQTEQEALQAKIVNAQNLLPQVTIDYDYRVKVSEVCAELDVDGLRGDIVTNRAAKALAAFEGRTEVTVDDISRVIVLCLRHRLRKDPLESIDSGSKVEKVFKRVFGVVDEA
notes: Magnesium chelatase subunit ChlI, Synechocystis sp; PCC 6803; no tag is named for ChlI; also called wild type ChlI; source: BL21(DE3), vector pET9a-ChlI, autoinducing medium ZYM-5052, purified
